Data on eleven molecules can be found in patent US20140045742A1.

Where no end group is shown, it is not given here.

B1: fusion polypeptide FP-3 (protein)
chain: GKSGTEAAGAMFLEAIPMSGGGGSGGGGSGGGGTTWEAWDRAIAEYAARIEALIRAAQEQQERNEAALREL
B2: fusion polypeptide FP-2 (protein)
chain: GRGTEAAGAMFLEAIPMSTTWMEWDKEINNYTSLIHSLIEESQNQQEKNEQELL
B3: fusion polypeptide FP-1 (protein)
chain: GRTEAAGAMFLEAIPMSGGGGSGGGGSGGGGTWQEWEQKITALLEQAQIQQEKNEYELQKLDKWASLWEWF

The first assay concerns the target HIV HR1 peptide (heptad repeat 1) (HIV). Description: SPR (BIAcore), HIV HR1 peptide immobilized on CM5 chip. (Surface plasmon resonance follows binding to a sensor surface in real time, without labels.)
The term Kd denotes a measure of binding affinity in units of concentration. The term koff denotes a measure of how fast the partners let go of each other. A lower koff goes with a long-lived complex. The term kon denotes the second-order rate constant of association. Lower therefore signals slower complex formation. B1: the Ka was 3.22e+10 M⁻¹, the Kd was determined as 31 pM, the koff came out at 3.07e-05 s⁻¹ and the kon worked out at 991000 M⁻¹ s⁻¹.
In the same order, the values of B2 are 1.08e+10 M⁻¹, 92.4 pM, 0.000119 s⁻¹ and 1.29e+06 M⁻¹ s⁻¹.
On the same counts, the results for B3 are 6.29e+08 M⁻¹, 1590 pM, 0.000361 s⁻¹ and 227000 M⁻¹ s⁻¹.

For the next assay, the target named is alpha1-antitrypsin, P01009. Description: in vitro association of the serpin-finger polypeptide with alpha1-antitrypsin.
Chain of alpha1-antitrypsin, P01009 (P01009 25-418 limits assumed): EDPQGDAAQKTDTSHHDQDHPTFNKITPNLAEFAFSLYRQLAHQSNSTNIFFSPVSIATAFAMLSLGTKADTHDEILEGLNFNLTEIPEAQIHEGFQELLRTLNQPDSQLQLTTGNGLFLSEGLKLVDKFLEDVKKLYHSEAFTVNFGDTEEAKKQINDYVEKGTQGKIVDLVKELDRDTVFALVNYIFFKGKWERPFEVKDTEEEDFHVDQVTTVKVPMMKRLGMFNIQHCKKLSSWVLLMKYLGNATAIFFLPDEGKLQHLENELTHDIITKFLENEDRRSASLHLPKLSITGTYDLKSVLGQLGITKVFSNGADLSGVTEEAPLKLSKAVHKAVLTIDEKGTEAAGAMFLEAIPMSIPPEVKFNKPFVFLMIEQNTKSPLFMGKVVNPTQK
As for Ac-SEAAASMFLEAI, the in vitro association T1/2 came to 4 h.
The same measure, in the same setting: the same measure for Ac-TEAAGATAVVIA: 9.5 h; for Ac-TDAAGATAVVIA: 16 h.
Ac-SDAAGAMFLEAI yielded an in vitro association T1/2 of 16 h.
Turning to Ac-SEAAASTAVVIA, the in vitro association T1/2 is 1.4 h.
In turn, Ac-TEAAGAMFLEAIVM displayed an in vitro association T1/2 of 10 h.
With Ac-TAVVIA [Ac-TAVVIA], the in vitro association T1/2 was 16 h.
On the same count and under the same terms, then Ac-TEAAGAMFFEAIPM, with 10 h.
